# Measurements taken from patent US20100062011A1.
# Legend:
# [1] = molecular target: DTL, T-cell epitope peptide derived from diphtheria toxoid; assay: ELISA, serum dilutions on coated DTL peptide; control serum
# [2] = molecular target: TetT3L, T-cell epitope peptide derived from tetanus toxoid
# [3] = molecular target: Amyloid β-peptide consisting of 42 amino acid residues (human); assay: ELISA, serial 2-fold serum dilutions on coated Aβ (SEQ ID NO:2); negative control serum
# [4] = molecular target: Peptide having the amino acid sequence of the 298th to 312th of Gag protein derived from HIV-1 (HIV-1); assay: ELISA, serial 2-fold serum dilutions on coated Gag peptide; negative control serum
Substance,antibody titer [1],antibody titer [2],antibody titer [3],antibody titer [4]
Serum of BALB/c mice given neither peptide nor binary mixed vaccine (Experiment 2) (antibody),3,3,,
"Antiserum from BALB/c mice not vaccinated (negative control, Experiment 1) (antibody)",,,9.2,5.7
